In patent US20240294624A1, “ANTI-ERYTHROPOIETIN ANTIBODY” (ANDREMACON S.R.L., priority 2021, published 2024):

Key:
[1] = system: human tumor GSC-derived xenograft; test: Gene expression of GSC-derived xenograft after in vivo treatment; design: species or system mice; conditions: xenograft GSCs; RealTime PCR
Protocol: The analysis was performed by the assessment of gene expression profile on human tumor GSC-derived xenograft. Gene expression analysis were conducted by Real-Time PCR, run in triplicate, using 18S as endogenous control. Samples have been normalized to untreated CTRL. The analysis was conducted on genes related to FIG. 30A apoptosis, FIG. 30B inflammation, FIG. 30C proliferation.
(§1) Tissues were processed and total RNA was extracted following TRI-Reagent protocol and quantified with NanoDrop 1000 Spectro-photometer (Thermo Fisher Scientific). Reverse transcriptase reaction was executed using TranScriba Kit (A&A Biotechnology), loading 1 μg of RNA (A260/A280>1.8), according to manufacturer's instructions. qRT-PCR was performed using StepOnePlus™ (Thermo Fisher Scientific), 1 μg of cDNA, forward and reverse human primers (250 nM each) Titan HotTaq EvaGreen® qPCR Mix (Bioatlas). Data were normalized to 18S expression, used as endogenous control. Relative gene expression was determined using the 2-ΔΔCt method (FIG. 30).

DLD1 = test: MTT cell viability assay; assay type: cell-based, human; conditions: 96 hours, 6 μg/ml
Protocol: Cell viability was assessed by 3-(4,5-Dimethylthiazol-2-yl)-2,5-Diphenyl-tetrazoliumBromide (MTT) assay, as a function of redox potential (FIGS. 2-7). Cells (5×10^3/well) were seeded and cultured in 96-well plate for 24 h in Basal Medium (BM). Then, culture media were replaced with fresh media containing the specific treatments, or in BM as a control condition (CTR).
Test was performed in triplicate after 96 h of treatment, by replacing culture media with 100 μL of fresh media added with 10 μL of MTT 5 mg/ml in D-PBS. After 4 h of incubation, media were removed and cells were lysed with 100 μL of 2-propanol/formic acid (95:5, by vol) for 10 min. Then, absorbance was read at 570 nm in microplate reader.

murine EPO (mEPO) = biological target: T1, murine EPO (mEPO) (Mus musculus, UniProt P07321); test: SPR binding kinetics; conditions: m-EPO
T1 sequence (P07321 27-192): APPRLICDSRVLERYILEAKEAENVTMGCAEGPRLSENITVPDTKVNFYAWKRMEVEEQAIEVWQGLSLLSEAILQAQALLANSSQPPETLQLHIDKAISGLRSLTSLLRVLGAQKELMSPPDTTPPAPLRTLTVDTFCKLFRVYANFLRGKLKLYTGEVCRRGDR
Protocol: FIG. 26A SPR technology can allow to determine the plasma and tissue concentrations of antibody, on the basis of an appropriate calibration curve. FIG. 26B Blood samples were collected from the retroorbital plexus under isoflurane anesthesia at 4, 24, 48, 72, 120, and 168 h from treatment.
SPR is a technology widely used to study in real time the interaction between two unlabeled molecules, one (the “ligand”) immobilized on a sensor chip, and the other (the “analyte”) flowing through a microfluidic system over the chip surface. Binding is measured in real time as a change in the refractive index on the surface. The most common application of SPR is to determine the association/dissociation binding constants for biomolecular interactions, but its versatility allows many other uses, including label-free immunoassays and concentration determination of biologics.
The study was carried out using an up-to-date SPR apparatus, the ProteOn XPR36 Protein Interaction Array system (Bio-Rad Laboratories). This system is mainly characterized by the presence of six flow channels which can uniformly immobilize up to six ligands on parallel strips of the same sensor surface.
In addition, SPR analysis was performed for anti-EPO (C4) to evaluate the binding kinetics parameters.

SHSY-5Y = test: MTT cell viability assay; assay type: cell-based, human; conditions: 96 hours, 6 μg/ml
From the text: K. Neuroblastoma cell line (SHSY-5Y) line is a cell line isolated from a bone marrow biopsy taken from a patient with neuroblastoma. SHSY cells are often used as in vitro models of oncological pathology and neuronal differentiation.

[2] = system: primary anaplastic astrocytoma cells; test: MTT cell viability assay; assay type: cell-based, human; conditions: 96 hours, anti-EPO (C4) 6 μg/ml, TMZ 100 μM, FTY720 100 nM
From the text: D. Primary anaplastic astrocytoma cancer stem cells isolated from tumor biopsy of a cohort of patients affected by high grade glioma, in particular, anaplastic astrocytoma (WHO, grade III);

HOC84 stem cells = test: Gene expression by RealTime PCR; assay type: cell-based, human; conditions: 72 h
Protocol: as §1, with “The analysis was performed by the assessment of gene expression by RealTime PCR on genes related to apoptosis (FIG. 23A), proliferation (FIG. 23B), angiogenesis (FIG. 23C), and inflammation (FIG. 23D). HOC84 stem cells (2×10^5)” for “Tissues”, “seeded into 25 cm2 collagen-coated culture flasks. […] At the end,” for “processed and”, “reverse” for “reverse human”, “2−ΔΔCt” for “2-ΔΔCt”, “23).” for “30).”

primary GSCs = test: MTT cell viability assay; assay type: cell-based, human; conditions: 96 hours, anti-EPO (C4) 6 μg/ml, TMZ 100 μM, FTY720 100 nM
From the text: A. Primary glioblastoma cancer stem cells (GCSc).

PC-3 = test: MTT cell viability assay; assay type: cell-based, human; conditions: 96 hours, 6 μg/ml
From the text: (§2) F. Prostate cancer cell lines (PC-3 and LNCAP); human prostate cancer cells used in cancer research and drug development. […] have been reported to be overexpressed and associated with poor prognosis and reduced survival in prostate cancer patients, and are considered predictive markers of aggressive prostate cancer behavior.

LNCAP = test: MTT cell viability assay; assay type: cell-based, human; conditions: 96 hours, 6 μg/ml
From the text: as §2

U373 cells = test: MTT viability of chemo-resistant cells; assay type: cell-based; conditions: 96 h
human healthy astrocytes = test: MTT cell viability assay; assay type: cell-based; conditions: 96 hours
From the text: L. Human healthy Astrocytes is a commercial cell line of human healthy astrocytes

K562 = test: MTT cell viability assay; assay type: cell-based, human; conditions: 96 hours, 6 μg/ml
From the text: H. Myelogenous leukemia cell line (K562); chronic myeloid leukemia cells. Circulating […] levels are reliably higher in myelodysplastic syndromes than in healthy people, with a negative predictive role;

B1: anti-EPO (C4): isolated anti-Erythropoietin monoclonal antibody, VL SEQ ID NO:6, VH SEQ ID NO:14, hybridoma DSM ACC 3370 (antibody, listed as Homo sapiens, V domains shown)
VH: EVKLQESGGGLVQPGGSLKLSCAASGFTFSTYTMSWVRQTPEKRLEWVAYISNGGDRTYYPDTVKGRFTISRDDAKNTLFLQMSSLKSEDTAMYYCARHNITTVPFTMDYWGQGTSVTVSS
VL: DIVLTQSPASLAVSLGQRATISCRASESVDYYGTGLMQWYQQRPGQPPKLLIYGASNVGSGVPARFSGSGSGTDFSLNIHPVEGDDIAMYFCQQTRKVPSTFGGGTKLEIK
modifications: VH amino acid sequence; VL amino acid sequence
gene expression on tumoral cells after in vivo treatment [1]: induced inhibition cancer stem cell proliferation, increase apoptosis and inflammation
cells initially plated dead (DLD1): 73%
kd (murine EPO (mEPO)): 0.000669 s⁻¹
Kd (murine EPO (mEPO); rounded): 1000 nM
cells initially plated dead (SHSY-5Y): 62%
cells initially seeded dead [2]: ~66%
expression of genes related to angiogenesis (HOC84 stem cells): significantly inhibits proliferation and angiogenesis
expression of genes related to apoptosis (HOC84 stem cells): increases apotosis and inflammation
expression of genes related to inflammation (HOC84 stem cells): higher expressed
cells initially seeded dead (primary GSCs): about 73%
cells initially plated dead (PC-3): 71%
cells initially plated dead (LNCAP): 74%
percent survival (U373 cells): 30%
effect on human healthy astrocyte viability (human healthy astrocytes): did not affected human healthy astrocyte viability
cells initially plated dead (K562): 62%
